The source of these data is PMC11561318 (Nature Communications, 2024).

For assay [1], the target named is His-tagged NanoLuc-PP1α-HaloTag sensor (PP1-WT) (human, UniProt P62136 1-330, NanoBRET 618 ligand on the HaloTag). The assay can be described thus: FRET or BRET. (In BRET a luciferase serves as donor, and the signal depends on an acceptor being close.)
The target in a further assay is LgBiT-PP1α^ΔC (human, UniProt P62136 1-298). The assay is described as follows: split reporter.
In the next assay the target is LgBiT-PP1α^WT (human, UniProt P62136 1-330). The assay can be described thus: split reporter.
LgBiT-PP1α^WT, sequence (P62136 whole entry): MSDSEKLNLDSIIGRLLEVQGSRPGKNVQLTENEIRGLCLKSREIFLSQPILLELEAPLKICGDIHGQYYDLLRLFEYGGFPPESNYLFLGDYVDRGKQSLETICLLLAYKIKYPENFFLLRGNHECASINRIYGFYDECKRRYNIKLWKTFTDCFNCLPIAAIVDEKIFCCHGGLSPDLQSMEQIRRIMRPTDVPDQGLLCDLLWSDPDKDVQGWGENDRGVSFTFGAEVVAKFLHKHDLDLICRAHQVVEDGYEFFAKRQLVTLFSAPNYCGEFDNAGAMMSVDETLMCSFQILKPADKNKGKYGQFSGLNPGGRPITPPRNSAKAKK

His-tagged NanoLuc-PP1α-HaloTag sensor (PP1-WT), sequence (P62136 whole entry): as above
LgBiT-PP1α^ΔC, sequence (P62136 1-298, stated change not applied): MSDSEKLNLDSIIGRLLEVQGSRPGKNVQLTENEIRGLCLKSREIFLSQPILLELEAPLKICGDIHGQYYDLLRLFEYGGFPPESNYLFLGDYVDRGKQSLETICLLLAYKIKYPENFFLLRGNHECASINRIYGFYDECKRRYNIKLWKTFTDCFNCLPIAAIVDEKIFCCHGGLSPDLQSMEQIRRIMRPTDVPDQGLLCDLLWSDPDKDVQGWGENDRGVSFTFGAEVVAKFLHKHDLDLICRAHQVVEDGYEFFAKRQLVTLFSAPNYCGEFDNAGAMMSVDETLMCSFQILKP

B1: HIS-ASPP1-(867–1090) (domain or fragment)
chain: RTNLKKPNSERTGHGLRVRFNPLALLLDASLEGEFDLVQRIIYEVEDPSKPNDEGITPLHNAVCAGHHHIVKFLLDFGVNVNAADSDGWTPLHCAASCNSVHLCKQLVESGAAIFASTISDIETAADKCEEMEEGYIQCSQFLYGVQEKLGVMNKGVAYALWDYEAQNSDELSFHEGDALTILRRKDESETEWWWARLGDREGYVPKNLLGLYPRIKPRQRTLA
In the case of B1, in assay [1], the binding result is listed as “binds”.

B2: HIS-R2-WT (natural protein)
chain: MAASTASHRPIKGILKNKTSTTSSMVASAEQPRGNVDEELSKKSQKWDEMNILATYHPADKDYGLMKIDEPSTPYHSMMGDDEDACSDTEATEAMAPDILARKLAAAEGLEPKYRIQEQESSGEEDSDLSPEEREKKRQFEMKRKLHYNEGLNIKLARQLISKDLHDDDEDEEMLETADGESMNTEESNQGSTPSDQQQNKLRSS
As for B2, the binding result (in the assay with LgBiT-PP1α^ΔC; with LgBiT-PP1α^WT; in assay [1]) was “binds” throughout.
